Data on one molecule can be found in patent US20250230236A1 (SINGAPORE HEALTH SERVICES PTE, published 2025).

For the assay, the target named is T1, GRP78 (UniProt P11021 19-654).
T1 construct: Endogenous protein of PC-9 cells
Nature of the assay: cross-immunoprecipitation. The protocol: FIGS. 6A-6B show A) immunoprecipitation with GR 6A04. Boxed area was excised for mass spectrometry. B) Mass spectrometry analysis of excised region identified the top 5 putative antigens after removal of non-specific hits found in the same region in the Column Control lane. […] The antigen identity was then validated by a pull-down with commercial antibodies against the target, and a cross-probe of the immunoprecipitated products with GR 6A04, and vice-versa. GRP78 was tested by cross-IP and ruled out as possible antigen for GR 6A04.
Immunoprecipitation (IP) was conducted using the automated Phynexus MEA system (Phynexus Inc., USA). GR6A04 was captured onto Protein G PhyTip columns containing 5 ul of resin bed. The column was then washed with PBS to remove unbound proteins, and PC-9 membrane protein extract was introduced to bind to GR6A04 that has been captured on the column. The column was then washed with Wash Buffer II (140 mM NaCl, pH7.4) before elution at low pH with Elution Buffer (200 mM NaH2PO4/140 mM NaCl pH 2.5) and neutralized immediately with 1 M Tris-Cl pH 9.0. The IP product is then subjected to analysis by Western blot.

T1 sequence (P11021 19-654 limits assumed): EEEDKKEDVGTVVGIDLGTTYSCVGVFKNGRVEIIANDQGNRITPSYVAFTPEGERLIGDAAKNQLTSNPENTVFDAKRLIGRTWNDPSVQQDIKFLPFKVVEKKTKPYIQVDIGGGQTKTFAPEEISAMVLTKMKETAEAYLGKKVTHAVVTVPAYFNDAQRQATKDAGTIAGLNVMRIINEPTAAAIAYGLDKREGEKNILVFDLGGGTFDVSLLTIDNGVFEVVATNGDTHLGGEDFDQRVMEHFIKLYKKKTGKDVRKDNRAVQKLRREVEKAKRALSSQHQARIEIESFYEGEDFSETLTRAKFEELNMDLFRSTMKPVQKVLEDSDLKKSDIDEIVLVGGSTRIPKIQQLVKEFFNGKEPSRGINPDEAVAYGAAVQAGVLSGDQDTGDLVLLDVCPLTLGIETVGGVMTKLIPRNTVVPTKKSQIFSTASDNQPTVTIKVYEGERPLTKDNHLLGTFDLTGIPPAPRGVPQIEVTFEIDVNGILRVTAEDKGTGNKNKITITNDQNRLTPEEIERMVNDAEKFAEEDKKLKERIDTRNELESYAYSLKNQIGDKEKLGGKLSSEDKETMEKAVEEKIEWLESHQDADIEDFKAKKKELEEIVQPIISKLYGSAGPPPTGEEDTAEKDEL

B1: GR6A04 monoclonal antibody (antibody, mouse IgG1, V domains shown)
VH: SGPELVKPGASVKMSCKASGNTFTSYVMHWVKQKPGQGLEWIGYINPYNDGTKYNEKFKGKATLTSDKSSSTAYMELSSLTSEDSAVYYCARSTARATPYFYAMDYWGQGTSVTVSS
VL: DILMTQSPSSLAVTAGEKVTMRCKSSQSLLWSVNQNSYLSWYQLKQGQPPKLLLYGASIRESWVPDRFTGSGSGTDFTLTISNVHVEDLAVYYCQHNHGSFLPYTFGGGTKLEIK
notes: also called mAb GR 6A04
Take B1: the binding result was “no binding”.
